Reference: article PMC10952681

Molecular target: Rhizobium radiobacter MDC 8606 N-carbamoyl-β-alanine amidohydrolase (Rhizobium radiobacter MDC 8606)
Test: SEC; Superdex S200 16/60, 50 mM Tris-HCl pH 8.0, 150 mM NaCl; calibrated column; single major peak at 74.4 mL, apparent molecular weight 90 kDa

For “Rhizobium radiobacter MDC 8606 N-carbamoyl-β-alanine amidohydrolase (enzyme)”, the stoichiometry N was 2.
